# B1: Acid sphingomyelinase-like phosphodiesterase 3b (Homo sapiens), Q92485-2 (parent)
# chain: MRLLAWLIFLANWGGARAEPGKFWHIADLHLDPDYKVSKDPFQVCPSAGSQPVPDAGPWGDYLCDSPWALINSSIYAMKEIEPEPDFILWTGDDTPHVPDEKLGEAAVLEIVERLTKLIREVFPDTKVYAALGNHDFHPKNQFPAGSNNIYNQIAELWKPWLSNESIALFKKGAFYCEKLPGPSGAGRIVVLNTNLYYTSNALTADMADPGQQFQWLEDVLTDASKAGDMVYIVGHVPPGFFEKTQNKAWFREGFNEKYLKVVRKHHRVIAGQFFGHHHTDSFRMLYDDAGVPISAMFITPGVTPWKTTLPGVVNGANNPAIRVFEYDRATLSLKVRSPAEARGGGWEGLKCITTFPHSQLIHLPLTTEPQEG
# Variants of: B1
# Conditions: with INSR
row,effect of a mutation on the interaction,Variant
1,with no effect,H135A

# Variants of: B1
# Conditions: with INSR
# Remark: another data set of the same source
row,effect of a mutation on the interaction,Variant
1,with no effect,H135A

# Variants of: B1
# Conditions: with CAV1, Q03135-1
# CAV1, Q03135-1, sequence (Q03135 whole entry): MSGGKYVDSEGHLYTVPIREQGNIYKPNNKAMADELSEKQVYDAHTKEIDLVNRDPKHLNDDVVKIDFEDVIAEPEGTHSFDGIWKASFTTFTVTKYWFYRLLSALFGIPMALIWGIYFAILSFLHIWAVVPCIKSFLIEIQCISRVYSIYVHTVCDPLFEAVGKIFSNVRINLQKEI
row,effect of a mutation on the interaction,Variant
1,with no effect,H135A
